Usually Kd stands for the constant that tells how readily two partners part at equilibrium. Lower therefore signals a tighter complex.

The experiment has as its target T1, VEGFR-2-Fc domain 1&2&3 (Homo sapiens, UniProt P35968).
T1 chain: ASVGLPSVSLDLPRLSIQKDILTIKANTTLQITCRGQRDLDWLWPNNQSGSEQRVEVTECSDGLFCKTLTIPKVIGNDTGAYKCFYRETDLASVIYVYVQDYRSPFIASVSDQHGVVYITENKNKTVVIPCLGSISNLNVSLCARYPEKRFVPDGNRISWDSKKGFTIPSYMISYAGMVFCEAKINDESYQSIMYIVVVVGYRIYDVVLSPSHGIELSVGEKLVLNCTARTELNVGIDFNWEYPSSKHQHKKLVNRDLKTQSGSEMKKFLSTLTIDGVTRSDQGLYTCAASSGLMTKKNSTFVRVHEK
The experiment can be described thus: biolayer interferometry. For orientation: BLI is a label-free optical method that tracks binding on a fibre tip over time.

On to Ac-ESNITMQIMRIKPHQGQHIGEMSFLQHMK-NH2 [VEGF73-101], for which the Kd was roughly 124 µM.

B1: VEGF-165 (protein)
chain: MTDRQTDTAPSPSYHLLPGRRRTVDAAASRGQGPEPAPGGGVEGVGARGVALKLFVQLLGCSRFGGAVVRAGEAEPSGAARSASSGREEPQPEEGEEEEEKEEERGPQWRLGARKPGSWTGEAAVCADSAPAARAPQALARASGRGGRVARRGAEESGPPHSPSRRGSASRAGPGRASETMNFLLSWVHWSLALLLYLHHAKWSQAAPMAEGGGQNHHEVVKFMDVYQRSYCHPIETLVDIFQEYPDEIEYIFKPSCVPLMRCGGCCNDEGLECVPTEESNITMQIMRIKPHQGQHIGEMSFLQHNKCECRPKKDRARQEKKSVRGKGKGQKRKRKKSRYKSWSVPCGPCSERRKHLFVQDPQTCKCSCKNTDSRCKARQLELNERTCRCDKPRR
B1: the Kd was 0.0035 µM.

(Values after paper PMC12559092 (2025).)
